Experimental data published in US7262289 (Bristol-Myers Squibb, dated 2007).

Target: T1, human KCNQ3/KvLR2 (human, UniProt O43525 25-872)
T1 sequence: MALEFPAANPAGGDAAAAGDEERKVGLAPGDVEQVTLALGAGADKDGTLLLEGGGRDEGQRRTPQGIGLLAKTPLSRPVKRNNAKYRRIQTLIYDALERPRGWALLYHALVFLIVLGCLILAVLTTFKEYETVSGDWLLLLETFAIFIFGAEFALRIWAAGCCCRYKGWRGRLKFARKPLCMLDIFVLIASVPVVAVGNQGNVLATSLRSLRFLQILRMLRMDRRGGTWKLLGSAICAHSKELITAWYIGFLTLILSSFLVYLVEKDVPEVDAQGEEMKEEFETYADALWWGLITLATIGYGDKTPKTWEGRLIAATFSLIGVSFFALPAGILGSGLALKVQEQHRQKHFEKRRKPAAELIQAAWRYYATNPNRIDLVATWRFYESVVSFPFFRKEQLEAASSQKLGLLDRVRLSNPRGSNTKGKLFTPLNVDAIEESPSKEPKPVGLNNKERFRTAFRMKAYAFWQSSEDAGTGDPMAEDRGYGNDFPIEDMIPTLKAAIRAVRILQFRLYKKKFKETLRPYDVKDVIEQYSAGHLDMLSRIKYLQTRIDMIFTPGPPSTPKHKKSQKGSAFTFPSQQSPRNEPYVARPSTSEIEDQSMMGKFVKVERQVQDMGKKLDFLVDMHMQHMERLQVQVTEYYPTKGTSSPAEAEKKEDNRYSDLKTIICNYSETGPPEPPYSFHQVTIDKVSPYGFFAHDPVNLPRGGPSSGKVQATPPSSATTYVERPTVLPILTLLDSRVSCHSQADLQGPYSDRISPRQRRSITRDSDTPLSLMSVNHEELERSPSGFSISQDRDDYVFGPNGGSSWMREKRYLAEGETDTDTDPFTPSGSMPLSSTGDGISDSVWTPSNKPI
Assay: cell-based or functional assay

B1: human KCNQ2/KvLR1 (other)
chain: MVQKSRNGGVYPGPSGEKKLKVGFVGLDPGAPDSTRDGALLIAGSEAPKRGSILSKPRAGGAGAGKPPKRNAFYRKLQNFLYNVLERPRGWAFIYHAYVFLLVFSCLVLSVFSTIKEYEKSSEGALYILEIVTIVVFGVEYFVRIWAAGCCCRYRGWRGRLKFARKPFCVIDIMVLIASIAVLAAGSQGNVFATSALRSLRFLQILRMIRMDRRGGTWKLLGSVVYAHSKELVTAWYIGFLCLILASFLVYLAEKGENDHFDTYADALWWGLITLTTIGYGDKYPQTWNGRLLAATFTLIGVSFFALPAGILGSGFALKVQEQHRQKHFEKRRNPAAGLIQSAWRFYATNLSRTDLHSTWQYYERTVTVPMYSSQTQTYGASRLIPPLNQLELLRNLKSKSGLAFRKDPPPEPSPSKGSPCRGPLCGCCPGRSSQKVSLKDRVFSSPRGVAAKGKGSPQAQTVRRSPSADQSLEDSPSKVPKSWSFGDRSRARQAFRIKGAASRQNSEASLPGEDIVDDKSCPCEFVTEDLTPGLKVSIRAVCVMRFLVSKRKFKESLRPYDVMDVIEQYSAGHLDMLSRIKSLQSRVDQIVGRGPAITDKDRTKGPAEAELPEDPSMMGRLGKVEKQVLSMEKKLDFLVNIYMQRMGIPPTETEAYFGAKEPEPAPPYHSPEDSREHVDRHGCIVKIVRSSSSTGQKNFSAPPAAPPVQCPPSTSWQPQSHPRQGHGTSPVGDHGSLVRIPPPPAHERSLSAYGGGNRASMEFLRQEDTPGCRPPEGTLRDSDTSISIPSVDHEELERSFSGFSISQSKENLDALNSCYAAVAPCAKVRPYIAEGESDTDSDLCTPCGPPPRSATGEGPFGDVGWAGPRK
- current amplitude in oocytes co-expressing KCNQ2 and KCNQ3 against oocytes injected with each channel alone (two-electrode voltage clamp): 15 fold
- shift of tail current reversal potential per 10-fold change in external K+ for KCNQ2+KCNQ3: 57 mV
